# Assay results: patent publication US20230365711A1 (Hoffmann-La Roche, published 2023)
# Substitutions are numbered along the chain they refer to.
# T1: human carcinoembryonic antigen (CEA), membrane-bound on cells (human, UniProt P06731 35-685)
# T1 construct: whole, on cells; also called CEACAM-5; CD66e
# T1 sequence (looked up): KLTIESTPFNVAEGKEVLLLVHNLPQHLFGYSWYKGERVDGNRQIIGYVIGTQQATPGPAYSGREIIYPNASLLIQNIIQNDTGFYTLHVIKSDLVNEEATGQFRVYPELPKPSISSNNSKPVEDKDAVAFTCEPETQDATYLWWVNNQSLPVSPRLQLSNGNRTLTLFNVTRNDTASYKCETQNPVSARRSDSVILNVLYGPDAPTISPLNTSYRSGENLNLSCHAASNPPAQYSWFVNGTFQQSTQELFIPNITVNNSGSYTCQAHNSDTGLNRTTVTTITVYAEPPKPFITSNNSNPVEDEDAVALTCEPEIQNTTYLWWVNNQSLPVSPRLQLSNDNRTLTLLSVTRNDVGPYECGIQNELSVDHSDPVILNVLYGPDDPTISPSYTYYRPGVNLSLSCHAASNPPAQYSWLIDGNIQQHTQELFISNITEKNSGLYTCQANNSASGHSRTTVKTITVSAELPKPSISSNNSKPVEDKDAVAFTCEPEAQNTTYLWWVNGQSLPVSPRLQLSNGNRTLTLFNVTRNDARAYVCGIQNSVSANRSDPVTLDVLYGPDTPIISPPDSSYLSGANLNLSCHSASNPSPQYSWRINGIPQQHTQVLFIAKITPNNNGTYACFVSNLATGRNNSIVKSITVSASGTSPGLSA
# T2: huNABA-avi-his (hybrid protein N-A1-B3-A2: N and A1 domains of human BGP, B3 domain of human CEA, A2 domain … (human, biotinylated at the avi tag (in vivo, co-transfected biotin ligase)))
# T2 construct: also called NABA-avi-his reagent; biotinylated NABA
# T2 chain: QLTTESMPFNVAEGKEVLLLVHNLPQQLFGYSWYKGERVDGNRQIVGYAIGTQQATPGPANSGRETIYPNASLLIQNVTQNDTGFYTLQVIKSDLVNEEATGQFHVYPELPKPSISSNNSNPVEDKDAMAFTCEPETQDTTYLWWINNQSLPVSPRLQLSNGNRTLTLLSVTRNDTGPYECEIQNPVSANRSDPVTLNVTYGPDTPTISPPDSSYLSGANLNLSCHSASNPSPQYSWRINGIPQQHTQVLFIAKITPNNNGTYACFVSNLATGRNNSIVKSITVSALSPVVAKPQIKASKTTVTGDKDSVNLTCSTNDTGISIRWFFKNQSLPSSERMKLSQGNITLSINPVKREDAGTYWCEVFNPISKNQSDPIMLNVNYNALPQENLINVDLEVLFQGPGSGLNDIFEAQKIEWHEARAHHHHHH
# B1: anti-CEA antibody with heavy chain CH1A4 and light chain 2F1 (antibody, V domains shown)
# VH: QVQLVQSGAEVKKPGASVKVSCKASGYTFTEFGMNWVRQAPGQGLEWMGWINTKTGEATYVEEFKGRFAFSLETSATTAYLQINNLKNEDTAKYFCARWDFYDYVEAMDYWGQGTTVTVSS
# VL: DIQMTQSPSSLSASVGDRVTITCKASAAVGTYVAWYQQKPGKAPKLLIYSASYRKRGVPSRFSGSGSGTDFTLTISSLQPEDFATYYCHQYYTYPLFTFGQGTKLEIKR
# B2: H3 Full (5) 19 (Fab, V domains shown)
# VH: QVQLVQSGSELKKPGASVKVSCKASGYTFTEFGMSWVRQAPGQGLEWMGWINTKTGEATYVEEFKGRFVFSLDTSVSTAYLQISSLKAEDTAVYYCARWDAFEYVKALDYWGQGTTVTVSS
# VL: DIQMTQSPSSLSASVGDRVTITCKASQNVGTNVAWYQQKPGKAPKLLIYSASYRYSGVPSRFSGSGSGTDFTLTISSLQPEDFATYYCHQYYTYPLFTFGQGTKLEIK
# B3: antibody with parent heavy chain variable region CH7A and affinity matured light chain variable region CL1A rH11 (antibody, V domains shown)
# VH: B2 VH with S35N, A101F, F102Y, E103D, K106E, L108M
# VL: B2 VL with N28T, G30S, T31A, S50L, S56R
# notes: The suffix G2(1) is not explained; also called CH7A, CL1ArH11; CH7A, CL1A rH11 G2(1)
# B4: anti-CEA Fab with affinity matured heavy chain CH7A H4E9 and unmatured light chain CL1A (Fab, V domains shown)
# VH: B2 VH with S35N, V61I, A101F, F102Y, E103D, K106E, L108M
# VL: B2 VL
# notes: Fab format, bacterially expressed; also called CH7A H4E9 + CL1A
# B5: humanized PR1A3 antibody comprising heavy chain variable region construct CH7A and light chain variable region construct CL1A (antibody, human IgG1, V domains shown)
# VH: B2 VH with S35N, A101F, F102Y, E103D, K106E, L108M
# VL: B2 VL
# notes: also called CH7A CL1A; CH7A, CL1A
# B6: antibody with heavy chain variable region CH7A and affinity matured light chain variable region CL1A rH7 (antibody, V domains shown)
# VH: B2 VH with S35N, A101F, F102Y, E103D, K106E, L108M
# VL: B2 VL with N28K, G30L, S50L
# notes: also called CH7A, CL1ArH7
# B7: antibody with affinity matured heavy chain variable region CH7A rB9 and affinity matured light chain variable region CL1A rH11 G2(1) (antibody, V domains shown)
# VH: B2 VH with S35N, T55S, A101F, F102Y, E103D, K106E, L108M
# VL: B2 VL with N28T, G30S, T31A, S50L, S56R
# notes: also called CH7A rB9, CL1A rH11 G2(1); CH7ArB9, CL1A rH11G2(1)
# Legend:
# [1] = molecular target: T1, human carcinoembryonic antigen (CEA), …; assay: FACS on MKN-45 cells
# Method: CH1A1 includes the M69F/T71L double point mutation. The latter three variants have the entire frameworks 1, 2, or 3, respectively, replaced by the murine counterpart. […] In this assay, cell binding of the CH1A-based antibody variants to CEA-expressing MKN-45 cells was analyzed at various concentrations. The affinity-matured light chain 2F1 was identical for all antibodies tested except for the parental antibody where the original light chain CL1A was used. Mean fluorescence was determined by FACS analysis. […] The DLS assay was performed using 1 mg/ml of the antibodies in a buffer of 20 mM Histidine and 140 mM NaCl at pH 6.0. The assay was conducted starting at 25° C. with an incremental temperature increase of 0.05° C./min up to 70° C. All antibodies tested in this assay had 2F1 as the light chain
# [2] = molecular target: huNABA-avi-his (hybrid protein N-A1-B3-A2: N and A1 domains of human BGP, B3 domain of human CEA, A2 domain of BGP, with precision protease site, avi tag and (His)6 tag), biotinylated (human); assay: Biacore on immobilized NABA-avi-his; Bivalent Affinity
# [3] = molecular target: T2, huNABA-avi-his (hybrid protein …); assay: Biacore, Fab on immobilized NABA-avi-his; column Monovalent Affinity
# [4] = molecular target: T2, huNABA-avi-his (hybrid protein …); assay: Biacore, column Affinity, CDR-H3 rows; antigen not named on the sheet, NABA-avi-his per paragraph 230
# [5] = molecular target: T2, huNABA-avi-his (hybrid protein …); assay: Biacore, column Affinity, CDR-H1 and CDR-H2 rows; antigen not named on the sheet, NABA-avi-his per paragraph 230
# [6] = molecular target: T1, human carcinoembryonic antigen (CEA), …; assay: flow cytometry on MKN45 cells, IgG1/kappa
# Method: (§1) An affinity matured heavy chain variable region construct, CH7A rF9, and an affinity matured light chain variable region construct, CL1A rH11, were paired with the parent light chain variable region construct and the heavy chain variable region construct, respectively, and with each other. All antibodies were converted into human IgG1/kappa and binding to the CEA-positive cell-line MKN45 was measured by flow cytometry. […] The matured light chain shifts the EC50 values to lower numbers, whereas the matured heavy chains (rF9 in FIG. 6, and rB9 in FIG. 15) shift the total fluorescence signal intensity in a flow-cytometry measurement. […] The combination of these two chains increases the affinity even further.
# [7] = molecular target: T1, human carcinoembryonic antigen (CEA), …; assay: flow cytometry on MKN45 cells, IgG [upper panel]
# Method: as §1
# [8] = molecular target: T2, huNABA-avi-his (hybrid protein …); assay: Biacore SPR, Fab; antigen not named on the sheet, NABA-avi-his per paragraph 230
# [9] = molecular target: T2, huNABA-avi-his (hybrid protein …); assay: Biacore, column Affinity, CDR-H1 and CDR-H2 rows; antigen not named on the sheet, NABA-avi-his per paragraph 230
# [10] = molecular target: T2, huNABA-avi-his (hybrid protein …); assay: Biacore, column Affinity, CDR-L1 and CDR-L2 rows (QNVGTN and PLI-YSASYRYS); antigen not named on the sheet, NABA-avi-his per paragraph 230
# [11] = molecular target: T1, human carcinoembryonic antigen (CEA), …; assay: flow cytometry on CEA positive MKN45 cells, IgG [lower panel]
# Method: as §1
# [12] = molecular target: T2, huNABA-avi-his (hybrid protein …); assay: Biacore on immobilized NABA-avi-his; Bivalent Affinity
binder,measurement,setting,value
B1,EC50 (read off the curve),[1],~0.8 µg/mL
B2,Kd,[2],0.19 nM
same,koff,[2],0.000175 s⁻¹
same,kon,[2],902000 M⁻¹ s⁻¹
same,Kd,[3],24 nM
same,koff,[3],0.0013 s⁻¹
same,kon,[3],54200 M⁻¹ s⁻¹
same,Kd,[4],26 nM
same,Kd,[5],26 nM
B3,EC50 (read off the curve),[6],~0.3 µg/mL
same,EC50 (read off the curve),[7],~0.5 µg/mL
B4,Kd,[3],402 nM
same,koff,[3],0.0021 s⁻¹
same,kon,[3],5220 M⁻¹ s⁻¹
same,Kd,[8],518 nM
same,Kd,[9],402 nM
same,Kd,[10],402 nM
B5,EC50 (read off the curve),[6],~0.6 µg/mL
same,EC50 (read off the curve),[11],~0.6 µg/mL
same,Kd,[12],2 nM
same,koff,[12],0.000552 s⁻¹
same,kon,[12],282000 M⁻¹ s⁻¹
B6,EC50 (read off the curve),[7],~0.7 µg/mL
B7,EC50 (read off the curve),[11],~0.5 µg/mL
